This note sets out measurements from article PMC3057501 (Molecular cell, 2011).

For orientation: stoichiometry N means a count of units in the complex or per binding partner.

This series deals with the molecule itself. Kind of series: SEC-MALS. Background: In gel filtration, larger molecules generally elute earlier.

B1: human PAPD1 (residues 44-538), wild type (enzyme, UniProt Q9NVV4 44-538, looked up)
chain: EQPSGSVETGFEDKIPKRRFSEMQNERREQAQRTVLIHCPEKISENKFLKYLSQFGPINNHFFYESFGLYAVVEFCQKESIGSLQNGTHTPSTAMETAIPFRSRFFNLKLKNQTSERSRVRSSNQLPRSNKQLFELLCYAESIDDQLNTLLKEFQLTEENTKLRYLTCSLIEDMAAAYFPDCIVRPFGSSVNTFGKLGCDLDMFLDLDETRNLSAHKISGNFLMEFQVKNVPSERIATQKILSVLGECLDHFGPGCVGVQKILNARCPLVRFSHQASGFQCDLTTNNRIALTSSELLYIYGALDSRVRALVFSVRCWARAHSLTSSIPGAWITNFSLTMMVIFFLQRRSPPILPTLDSLKTLADAEDKCVIEGNNCTFVRDLSRIKPSQNTETLELLLKEFFEYFGNFAFDKNSINIRQGREQNKPDSSPLYIQNPFETSLNISKNVSQSQLQKFVDLARESAWILQQEDTDRPSISSNRPWGLVSLLLPSAPNR
For the protein B1, the “stoichiometry N” value stood at 2.
